According to patent US20240209100A1 (DIAGONAL THERAPEUTICS, published 2024):
Read-outs that look alike come from different tables or passages of the source.

T1: IL-18 receptor (IL-18Rα/IL-18Rβ) overexpressed on HEK-Blue IL-18 cells (Homo sapiens (Human), UniProt Q13478 19-541; O95256 20-599)
T1 sequence 1: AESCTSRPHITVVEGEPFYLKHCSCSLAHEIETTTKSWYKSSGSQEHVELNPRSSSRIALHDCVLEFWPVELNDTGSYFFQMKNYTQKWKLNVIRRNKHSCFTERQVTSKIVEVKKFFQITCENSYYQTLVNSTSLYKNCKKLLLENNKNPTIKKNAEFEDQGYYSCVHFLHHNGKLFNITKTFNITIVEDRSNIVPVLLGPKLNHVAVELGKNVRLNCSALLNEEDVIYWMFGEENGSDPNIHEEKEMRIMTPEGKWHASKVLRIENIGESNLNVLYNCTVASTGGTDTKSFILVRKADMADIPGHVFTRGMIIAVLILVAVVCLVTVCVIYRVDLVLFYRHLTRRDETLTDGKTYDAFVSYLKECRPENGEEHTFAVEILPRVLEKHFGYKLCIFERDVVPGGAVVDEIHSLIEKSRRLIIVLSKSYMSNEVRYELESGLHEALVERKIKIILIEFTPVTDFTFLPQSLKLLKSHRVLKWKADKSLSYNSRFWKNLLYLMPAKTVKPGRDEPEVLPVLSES
T1 sequence 2: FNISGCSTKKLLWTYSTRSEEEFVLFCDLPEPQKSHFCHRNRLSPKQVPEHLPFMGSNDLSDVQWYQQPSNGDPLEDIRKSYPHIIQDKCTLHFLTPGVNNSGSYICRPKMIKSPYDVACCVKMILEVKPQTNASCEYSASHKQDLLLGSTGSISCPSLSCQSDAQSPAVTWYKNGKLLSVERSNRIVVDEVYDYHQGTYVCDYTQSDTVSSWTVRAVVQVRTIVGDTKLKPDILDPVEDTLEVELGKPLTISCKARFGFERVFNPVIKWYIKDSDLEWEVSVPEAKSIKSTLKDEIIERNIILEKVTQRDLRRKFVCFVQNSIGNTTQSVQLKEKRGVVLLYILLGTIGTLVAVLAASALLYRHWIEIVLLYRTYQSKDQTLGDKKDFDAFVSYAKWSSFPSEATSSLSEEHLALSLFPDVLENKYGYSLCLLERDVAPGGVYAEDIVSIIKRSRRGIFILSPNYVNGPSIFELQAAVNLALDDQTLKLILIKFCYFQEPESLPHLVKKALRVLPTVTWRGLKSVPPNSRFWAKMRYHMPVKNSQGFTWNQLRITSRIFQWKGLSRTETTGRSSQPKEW

T2: IL-18 receptor (IL-18Rα/IL-18Rβ) on human PBMCs (human, UniProt Q13478 19-541; O95256 20-599)
T2 sequence 1: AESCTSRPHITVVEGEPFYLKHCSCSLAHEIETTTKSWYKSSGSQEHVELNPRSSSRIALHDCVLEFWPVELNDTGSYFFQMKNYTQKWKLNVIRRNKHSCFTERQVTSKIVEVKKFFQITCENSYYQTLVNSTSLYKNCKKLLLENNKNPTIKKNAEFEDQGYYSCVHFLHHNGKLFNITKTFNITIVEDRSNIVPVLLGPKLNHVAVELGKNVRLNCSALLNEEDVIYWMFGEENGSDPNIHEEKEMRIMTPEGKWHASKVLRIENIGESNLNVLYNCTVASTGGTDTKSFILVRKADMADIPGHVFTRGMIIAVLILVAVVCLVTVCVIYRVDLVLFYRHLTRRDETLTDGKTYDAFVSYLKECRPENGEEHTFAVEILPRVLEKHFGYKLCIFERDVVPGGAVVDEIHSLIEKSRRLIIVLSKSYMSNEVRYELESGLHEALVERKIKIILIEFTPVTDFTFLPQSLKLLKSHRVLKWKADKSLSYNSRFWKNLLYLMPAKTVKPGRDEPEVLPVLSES
T2 sequence 2: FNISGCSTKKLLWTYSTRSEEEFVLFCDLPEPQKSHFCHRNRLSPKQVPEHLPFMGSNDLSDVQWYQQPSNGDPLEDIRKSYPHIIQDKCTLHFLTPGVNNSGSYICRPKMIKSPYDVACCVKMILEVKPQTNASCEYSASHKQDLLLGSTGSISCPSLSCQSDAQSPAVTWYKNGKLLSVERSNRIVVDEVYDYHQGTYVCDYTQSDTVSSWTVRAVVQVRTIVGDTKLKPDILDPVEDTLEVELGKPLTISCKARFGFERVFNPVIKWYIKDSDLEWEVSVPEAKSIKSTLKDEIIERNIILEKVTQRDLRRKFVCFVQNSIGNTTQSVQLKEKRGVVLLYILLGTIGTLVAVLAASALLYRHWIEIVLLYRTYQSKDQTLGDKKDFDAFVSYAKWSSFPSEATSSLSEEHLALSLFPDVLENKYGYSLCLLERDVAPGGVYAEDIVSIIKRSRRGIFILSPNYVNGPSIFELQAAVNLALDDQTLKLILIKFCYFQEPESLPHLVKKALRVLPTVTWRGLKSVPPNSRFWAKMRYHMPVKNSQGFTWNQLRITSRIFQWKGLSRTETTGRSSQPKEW

T3: human IL-18Rα (human, UniProt Q13478 19-329, limits assumed)
T3 construct: Monomeric antigen injected in SPR; also called huIL18Ra; IL-18R alpha
T3 sequence: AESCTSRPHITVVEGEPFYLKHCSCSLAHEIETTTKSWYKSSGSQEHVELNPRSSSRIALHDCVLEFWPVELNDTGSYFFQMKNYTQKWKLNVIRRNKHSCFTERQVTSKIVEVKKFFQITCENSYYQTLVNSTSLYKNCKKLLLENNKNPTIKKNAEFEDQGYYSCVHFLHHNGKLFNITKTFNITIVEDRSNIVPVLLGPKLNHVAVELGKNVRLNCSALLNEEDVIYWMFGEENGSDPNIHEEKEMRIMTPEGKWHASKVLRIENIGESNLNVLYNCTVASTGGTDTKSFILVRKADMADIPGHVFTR

T4: human IL-18Rβ (human, UniProt O95256 20-356, limits assumed)
T4 construct: Monomeric antigen injected in SPR; also called IL-18R beta; IL-18Rb
T4 sequence: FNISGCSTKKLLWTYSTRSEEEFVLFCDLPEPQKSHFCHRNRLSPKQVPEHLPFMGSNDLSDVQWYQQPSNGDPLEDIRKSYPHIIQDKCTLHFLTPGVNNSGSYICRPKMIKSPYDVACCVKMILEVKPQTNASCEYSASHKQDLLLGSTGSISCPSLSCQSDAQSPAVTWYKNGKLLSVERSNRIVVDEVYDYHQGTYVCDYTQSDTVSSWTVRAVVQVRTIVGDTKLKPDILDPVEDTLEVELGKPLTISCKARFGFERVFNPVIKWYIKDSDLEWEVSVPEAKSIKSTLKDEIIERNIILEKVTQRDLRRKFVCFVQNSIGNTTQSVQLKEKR

T5: cynomolgus IL-18Rα (cynomolgus, UniProt A0A2K5V3J9 19-328)
T5 construct: also called Cyno IL-18Rα; non-human primate IL-18Rα
T5 sequence: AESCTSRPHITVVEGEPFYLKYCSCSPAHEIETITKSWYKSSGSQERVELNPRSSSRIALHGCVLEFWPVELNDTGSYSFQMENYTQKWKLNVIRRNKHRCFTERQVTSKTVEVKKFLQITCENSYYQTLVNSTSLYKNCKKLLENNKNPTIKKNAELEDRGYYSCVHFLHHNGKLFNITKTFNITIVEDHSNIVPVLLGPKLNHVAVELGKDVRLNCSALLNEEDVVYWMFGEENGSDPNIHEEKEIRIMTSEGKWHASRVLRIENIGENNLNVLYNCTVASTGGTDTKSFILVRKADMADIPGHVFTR


Tests used:
[1] = molecular target: T1, IL-18 receptor (IL-18Rα/IL-18Rβ) …; assay: cell-based or functional assay
[2] = molecular target: T2, IL-18 receptor (IL-18Rα/IL-18Rβ) on …; assay: cell-based or functional assay
[3] = molecular target: T1, IL-18 receptor (IL-18Rα/IL-18Rβ) …; assay: cell-based or functional assay; remark: listed apart in the source
[4] = molecular target: T3, human IL-18Rα; assay: SPR (Carterra LSA), antibody captured on anti-human IgG-Fc, monomeric antigen as analyte, 25 C
Description: (§1) SPR experiments were performed using Carterra LSA equipped with an HC30M chip (Carterra-Bio). Binding assays were carried out at 25° C. with HBSTE (10 mM HEPES ph7.4, 150 mM NaCl, 3 mM EDTA, 0.05% Tween-20) with 0.5 g/L BSA. A density of anti-human IgG-Fc capture lawn was established on an HC30M chip using amine coupling. […] Coupling of goat anti-human IgG (H+L) multi-species SP ads-UNLB (Southern Biotech, 2087-01) with standard immobilization was done for 15 minutes in 10 mM sodium acetate pH 4.5 and quenched using 1M ethanolamine HCl PH8.5. The anti-human IgG-Fc capture surface was then used to capture a panel of antibodies at 20 μg/mL. Monomeric antigen for human IL-18Rα, human IL-18Rβ, cynomolgus IL-18Rα, or rhesus IL-18Rβ targeted by the antibodies was injected over the captured antibody array at 6 concentrations in 4-fold dilution series starting at 500 nM. Binding data was referenced and blanked from a buffer injected, then globally fit to a 1:1 Langmuir binding model for estimation of ka, kd, and KD using Carterra Kinetics Software.

[5] = molecular target: T4, human IL-18Rβ; assay: as above
Description: as §1

[6] = molecular target: T5, cynomolgus IL-18Rα; assay: as above
Description: as §1

[7] = molecular target: T1, IL-18 receptor (IL-18Rα/IL-18Rβ) …; assay: cell-based or functional assay; remark: listed apart in the source

| HEK-Blue IL-18: Abs 405 at 100 nM [1] [Abs] | HEK-Blue IL-18: Fold over Background [1] [fold] | PBMC: calculated maximum induction of IFNγ after 24 hours, donor 1 [2] | PBMC: calculated maximum induction of IFNγ after 24 hours, donor 2 [2] | PBMC: calculated maximum induction of IFNγ after 24 hours, donor 3 [2] | PBMC: calculated maximum induction of IFNγ after 24 hours, donor 4 [2] | PBMC: calculated maximum induction of IFNγ after 24 hours, donor 5 [2] | PBMC: calculated maximum induction of IFNγ after 24 hours, donor 6 [2] | EC50 (read off the curve), HEK Blue IL-18 SEAP reporter [3] [nM] | Kd [4] [nM] | Kd [5] [nM] | Kd [6] [nM] | HEK-Blue IL-18: Abs 405 at 100 nM [7] [Abs] | HEK-Blue IL-18: Fold over Background [7] [fold] | Binder |
| --- | --- | --- | --- | --- | --- | --- | --- | --- | --- | --- | --- | --- | --- | --- |
| 1.87 | 10.1 | 16000 | 1300 | 22000 | 19000 | 15000 | 2400 | ~1 | 8 | 14 | 10 | – | – | DGL620 (bispecific antibody) heavy 1: EVQLLESGGGLVQPGGSLRLSCAASGRTFSKHAMGWFRQAPGKGLEFVSAIDWSGGSTYYADSVKGRFTISRDNSKNTVYLQMNSLRAEDTAVYYCAADSYTDYAQLWLPELESEYDYWGQGTLVTVSSCPPCPAPEAAGAPSVFLFPPKPKDTLYITREPEVTCVVVDVSHEDPEVKFNWYVDGVEVHNAKTKPREEQYNSTYRVVSVLTVLHQDWLNGKEYKCKVSNKALPAPIEKTISKAKGQPREPQVCTLPPSRDELTKNQVSLSCAVKGFYPSDIAVEWESNGQPENNYKTTPPVLDSDGSFFLVSKLTVDKSRWQQGNVFSCSVMHEALHNHYTQKSLSLSPG heavy 2: QLQLLESGGGLVQAGGSLRLSCAASRSITFSHNVMGWYRQAPGKGRELVSSIGSGGSTNYVDSVKGRFTISRDNSKKTLYLQMNSLRAEDTAVYYCGVVVGVYRGSLGQGTLVTVSSCPPCPAPEAAGAPSVFLFPPKPKDTLYITREPEVTCVVVDVSHEDPEVKFNWYVDGVEVHNAKTKPREEQYNSTYRVVSVLTVLHQDWLNGKEYKCKVSNKALPAPIEKTISKAKGQPREPQVYTLPPCRDELTKNQVSLWCLVKGFYPSDIAVEWESNGQPENNYKTTPPVLDSDGSFFLYSKLTVDKSRWQQGNVFSCSVMHEALHNHYTQKSLSLSPG |
| – | – | – | – | – | – | – | – | ~6 | – | – | – | – | – | DGL333 (bispecific antibody) heavy 1: EVQLLESGGGLVQPGGSLRLSCAASGRTFSKHAMGWFRQAPGKGLEFVSAIDWSGGSTYYADSVKGRFTISRDNSKNTVYLQMNSLRAEDTAVYYCAADSYTDYAQLWLPELESEYDYWGQGTLVTVSSCPPCPAPEAAGAPSVFLFPPKPKDTLYITREPEVTCVVVDVSHEDPEVKFNWYVDGVEVHNAKTKPREEQYNSTYRVVSVLTVLHQDWLNGKEYKCKVSNKALPAPIEKTISKAKGQPREPQVCTLPPSRDELTKNQVSLSCAVKGFYPSDIAVEWESNGQPENNYKTTPPVLDSDGSFFLVSKLTVDKSRWQQGNVFSCSVMHEALHNHYTQKSLSLSPG heavy 2: QLQLLESGGGLVQPGGSLRLSCAASRSITFSHNVMGWYRQAPGKGRELVSSIGSGGSTNYVDSVKGRFTISRDNSKKTLYLQMNSLRAEDTAVYYCGVVVGVYRGSLGQGTLVTVSSCPPCPAPEAAGAPSVFLFPPKPKDTLYITREPEVTCVVVDVSHEDPEVKFNWYVDGVEVHNAKTKPREEQYNSTYRVVSVLTVLHQDWLNGKEYKCKVSNKALPAPIEKTISKAKGQPREPQVYTLPPCRDELTKNQVSLWCLVKGFYPSDIAVEWESNGQPENNYKTTPPVLDSDGSFFLYSKLTVDKSRWQQGNVFSCSVMHEALHNHYTQKSLSLSPG |
| – | – | – | – | – | – | – | – | ~0.5 | – | – | – | 2.6 | 11.4 | DGL207 (bispecific antibody) heavy 1: QVQLVESGGGLVQAGGSLRLSCAASGRTFSKHAMGWFRQAPGKEREFVAAIDWSGGSTYYADSVKGRFTISRDNAKNTVYLQMDSLKPEDTAVYYCAADSYTDYAQLWLPELESEYDYWGQGTLVTVSSCPPCPAPEAAGAPSVFLFPPKPKDTLMISRTPEVTCVVVDVSHEDPEVKFNWYVDGVEVHNAKTKPREEQYNSTYRVVSVLTVLHQDWLNGKEYKCKVSNKALPAPIEKTISKAKGQPREPQVCTLPPSRDELTKNQVSLSCAVKGFYPSDIAVEWESNGQPENNYKTTPPVLDSDGSFFLVSKLTVDKSRWQQGNVFSCSVMHEALHNHYTQKSLSLSPGWSHPQFEK heavy 2: QLQLVESGGGLVQAGGSLRLSCAASRSITFSHNVMGWYRQAPGKQRELVASIGSGGSTNYVDSVKGRATISRDNAKKTVYLQMNSLKPEDTAVYYCGVVVGVYRGSLGQGTLVTVSSCPPCPAPEAAGAPSVFLFPPKPKDTLMISRTPEVTCVVVDVSHEDPEVKFNWYVDGVEVHNAKTKPREEQYNSTYRVVSVLTVLHQDWLNGKEYKCKVSNKALPAPIEKTISKAKGQPREPQVYTLPPCRDELTKNQVSLWCLVKGFYPSDIAVEWESNGQPENNYKTTPPVLDSDGSFFLYSKLTVDKSRWQQGNVFSCSVMHEALHNHYTQKSLSLSPGEPEA |
